{"source": "paper PMC5736527", "about": "“JUNGBRUNNEN1 Confers Drought Tolerance Downstream of the HD-Zip I Transcription Factor AtHB13”", "binders": {"B1": {"name": "JUB1 promoter 40-bp fragment (AtHB13BS-L) (dsDNA)", "DNA 1": "CTATAAAATTAGTTGCAATAAATGATTTAATTATTTTCCG", "DNA 2": "CGGAAAATAATTAAATCATTTATTGCAACTAATTTTATAG"}}, "target": "T1, AtHB13-GST (Arabidopsis thaliana, UniProt Q8LC03 1-294)", "T1 sequence": "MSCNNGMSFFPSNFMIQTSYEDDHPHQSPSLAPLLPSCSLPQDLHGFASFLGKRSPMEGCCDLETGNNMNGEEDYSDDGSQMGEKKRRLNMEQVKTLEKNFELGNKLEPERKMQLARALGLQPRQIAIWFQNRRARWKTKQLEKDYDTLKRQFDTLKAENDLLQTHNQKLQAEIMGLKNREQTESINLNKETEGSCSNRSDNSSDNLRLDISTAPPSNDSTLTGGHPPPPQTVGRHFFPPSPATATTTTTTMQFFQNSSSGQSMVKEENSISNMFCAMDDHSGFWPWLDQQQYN", "experiment": "EMSA; 200x unlabeled same-sequence competitor also run (lane 3); EMSA as in Wu et al. 2012, Odyssey Infrared EMSA kit (LI-COR); buffer, salt, pH and temperature not stated", "settings": "protein: recombinant; tags: GST (pDEST24, C-terminal fusion); chain copies: 2; label: 5'-DY682; blunt"}
{"binder": "B1", "values": [{"measurement": "binding result", "result": "binds"}]}
